Data reported in patent US7101851 (dated 2006).
Bridges are numbered along the chain shown (N, C = ends). Where no end group is shown, it is not given here.

Legend:
[1] = molecular target: T1, extracellular domain of the alpha subunit of the human FcεRI (aa 1-176), produced in baculovirus infected … (human, UniProt P12319 26-201, N-linked carbohydrate (NAG on Asn21 seen in the crystal); derivatised with PDEA for thiol coupling to the chip in the biosensor assay); assay: SPR biosensor (BIAcore), peptide over immobilized FcεRIα, steady-state saturation curve, 4-parameter fit
T1 construct: range 1-176; Residues 1-176 are probably counted without the signal peptide; also called FcεRIα; soluble FcεRI
T1 sequence (looked up): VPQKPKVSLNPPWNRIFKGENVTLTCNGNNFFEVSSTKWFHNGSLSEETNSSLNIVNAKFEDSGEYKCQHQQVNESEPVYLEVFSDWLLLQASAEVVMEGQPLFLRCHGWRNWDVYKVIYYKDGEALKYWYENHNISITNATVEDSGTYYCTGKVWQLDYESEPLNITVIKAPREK
Protocol: *peptide is a dimer. SEQ ID NO: describes each monomer of the dimer. "ava" = amino-valeric acid Several peptides were also tested in a direct-binding assay using a surface plasmon resonance biosensor (Lofas & Johnsson, *J. Chem. Soc. Commun.* 21, 1526–1528 (1990)). FcεRIα, produced in baculovirus infected insect cells, was immobilized by the surface thiol method (BIAcore Methods Manual Supplement 5a, BIAcore, Inc., Piscataway, N.J.). Briefly, receptor was reacted with 2-(2-pyridinyldithio)ethaneamine hydrochloride (PDEA; Natake & Swaisgood, *J. Biochem.* 74, 77–86 (1973)), desalted into 10 mM sodium acetate (pH 4.8) and stored in aliquots at −80° C. Thawed PDEA-receptor was injected over carboxymethyl-dextran (B1 or CM5, BIAcore, Inc.) biosensor chips preactivated with N-ethyl-N'-(3-dimethylaminopropyl)-carbodiimide hydrochloride (EDC) and N-hydroxysuccinimide (NHS), cystamine, and DTT. Following coupling, reactive groups on the chip were quenched with PDEA and ethanolamine. Serial dilutions of peptide in running buffer (phosphate-buffered saline containing 0.05% Tween-20, 0.01% sodium azide) were injected over the immobilized receptor, and the net amount of peptide bound at steady-state was measured as the net change in response (RU) at a point just prior to termination of peptide injection, compared to a running-buffer baseline. Binding affinities (Table 10) are reported as the midpoint ($EC50$) of a 4-parameter fit to the peptide saturation curve. In the case of IGE134 (SEQ ID NOS:), the value shown indicates the Kd calculated from the rate constants, $kon$ and $koff$. The results of binding assays (Table 8) correlate well with those of inhibition assays (Table 7).

[2] = molecular target: T2, alpha subunit of the human FcεRI receptor expressed on cells (human, UniProt P12319 26-257); assay: IgE inhibition assay (Table 9)
T2 construct: whole, on cells; on rat basophil RBL-48 cells in the histamine release assay; also called CHO FcεRI+ cells; cell surface expressed FcεRI
T2 sequence (looked up): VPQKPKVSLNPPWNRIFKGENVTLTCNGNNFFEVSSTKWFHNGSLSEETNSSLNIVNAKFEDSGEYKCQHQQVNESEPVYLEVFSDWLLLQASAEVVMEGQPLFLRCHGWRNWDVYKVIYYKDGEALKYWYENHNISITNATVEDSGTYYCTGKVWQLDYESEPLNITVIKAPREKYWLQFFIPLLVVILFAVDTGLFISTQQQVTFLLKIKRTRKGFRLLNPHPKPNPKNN

B1: IGE119 (peptide)
peptide: NGCPGWCYVGGKALCPDVCYV-NH2
modifications: disulfide 7-15, 3-19; N-terminus assumed
SMILES: CC(C)C[C@@H]1NC(=O)[C@H](C)NC(=O)[C@H](CCCCN)NC(=O)CNC(=O)CNC(=O)[C@H](C(C)C)NC(=O)[C@H](Cc2ccc(O)cc2)NC(=O)[C@@H]2CSSC[C@H](NC1=O)C(=O)N1CCC[C@H]1C(=O)N[C@@H](CC(=O)O)C(=O)N[C@@H](C(C)C)C(=O)N[C@H](C(=O)N[C@@H](Cc1ccc(O)cc1)C(=O)N[C@H](C(N)=O)C(C)C)CSSC[C@H](NC(=O)CNC(=O)[C@@H](N)CC(N)=O)C(=O)N1CCC[C@H]1C(=O)NCC(=O)N[C@@H](Cc1c[nH]c3ccccc13)C(=O)N2
An EC50 [1] of 1400 nM was found for B1 in this work.

B2: IGE120 (peptide)
peptide: IVCPRLCYVGGKALCPDVCYV-NH2
modifications: disulfide (positions not given here); also: oxidized, disulfide-bonded Cys, pairing not given here
An EC50 [1] of 260 nM was found for B2 in this work.

B3: IGE127 (peptide)
peptide: IVCARLCYVGGKALCPDVCYV-NH2
modifications: disulfide (positions not given here); not fully specified (bridges); also: oxidized, disulfide-bonded Cys, pairing not given here
notes: P4A variant of IGE120
An EC50 [1] of 13000 nM was found for B3 in this work.

B4: IGE121 (peptide)
peptide: VVCPNMCYVGGKALCPDVCYV-NH2
modifications: disulfide (positions not given here); also: oxidized, disulfide-bonded Cys, pairing not given here
An EC50 [1] of 340 nM was found for B4 in this work.

B5: IGE122 (peptide)
peptide: VQCPHFCYVGGKALCPDVCYV-NH2
modifications: disulfide (positions not given here); also: oxidized, disulfide-bonded Cys, pairing not given here
An EC50 [1] of 150 nM was found for B5 in this work.

B6: IGE123 (peptide)
peptide: VKCPSLCYVGGKALCPDVCYV-NH2
modifications: disulfide (positions not given here); also: oxidized, disulfide-bonded Cys, pairing not given here
An EC50 [1] of 180 nM was found for B6 in this work.

B7: IGE124 (peptide)
peptide: VPCPELCYVGGKALCPDVCYV-NH2
modifications: disulfide (positions not given here); also: oxidized, disulfide-bonded Cys, pairing not given here
An EC50 [1] of 890 nM was found for B7 in this work.

B8: IGE126 (peptide)
peptide: VTCPRWCYVGGKALCPDVCYV-NH2
modifications: disulfide (positions not given here); also: oxidized, disulfide-bonded Cys, pairing not given here
An EC50 [1] of 380 nM was found for B8 in this work.

B9: IGE128 (peptide)
peptide: KSCPLWCYVGGKALCPDVCYV-NH2
modifications: disulfide (positions not given here); not fully specified (bridges); also: oxidized, disulfide-bonded Cys, pairing not given here
An EC50 [1] of 240 nM was found for B9 in this work.

B10: IGE130 (peptide)
peptide: ALCPDVCYVGGKVQCPHFCYV-NH2
modifications: disulfide 7-15, 3-19; N-terminus assumed
SMILES: CC(C)C[C@H](NC(=O)[C@H](C)N)C(=O)N[C@H]1CSSC[C@@H](C(=O)N[C@@H](Cc2ccc(O)cc2)C(=O)N[C@H](C(N)=O)C(C)C)NC(=O)[C@H](Cc2ccccc2)NC(=O)[C@H](Cc2c[nH]cn2)NC(=O)[C@@H]2CCCN2C(=O)[C@@H]2CSSC[C@H](NC(=O)[C@H](C(C)C)NC(=O)[C@H](CC(=O)O)NC(=O)[C@@H]3CCCN3C1=O)C(=O)N[C@@H](Cc1ccc(O)cc1)C(=O)N[C@@H](C(C)C)C(=O)NCC(=O)NCC(=O)N[C@@H](CCCCN)C(=O)N[C@@H](C(C)C)C(=O)N[C@@H](CCC(N)=O)C(=O)N2
An EC50 [1] of 250 nM was found for B10 in this work.

B11: IGE131 (peptide)
peptide: VQCPHFCYVGGKVQCPHFCYV-NH2
modifications: disulfide (positions not given here); not fully specified (bridges); also: oxidized, disulfide-bonded Cys, pairing not given here
An EC50 [1] of 2300 nM was found for B11 in this work.

B12: IGE132 (peptide)
peptide: VQCPHFCYVGGHALCPDVCYVGR-OH
modifications: cysteine pairing not given here
notes: produced biosynthetically as a fusion to the Z-domain of protein A and cleaved off with trypsin; free C-terminus
An EC50 [1] of 680 nM was found for B12 in this work.

B13: IGE155 (peptide)
peptide: CPHFCYELDYELCPDVCY-NH2
modifications: disulfide (positions not given here); also: two intramolecular disulfide bonds, pairing not given here
For B13, the “fold difference in activity against IGE134” value [2] was no more than 2 fold.

B14: IGE170 (peptide)
peptide: CPHFCYFGAELCPDVCY-NH2
modifications: disulfide (positions not given here)
In the case of B14, the “fold difference in activity against IGE167” value [2] is reported as no more than 2 fold.

B15: IGE171 (peptide)
peptide: Ac-CPHFCYFGAELCPDVCY-NH2
modifications: disulfide (positions not given here)
In the case of B15, the “fold difference in activity against IGE167” value [2] is reported as no more than 2 fold.

B16: IGE141 (peptide)
peptide: IVCPRLCYELDYELCPDVCYV-NH2
modifications: disulfide 3-15, 7-19
In the case of B16, the “fold difference in activity against IGE120” value [2] is reported as 2 fold.

B17: IGE131 (peptide)
peptide: VQCPHFCYVGGKVQCPHFCYV-NH2
modifications: disulfide 3-15, 7-19
notes: The text speaks of it as D17H against IGE122
B17 was tested, and the “fold reduced activity against IGE122” value [2] was greater than 10 fold.

B18: IGE136 (peptide)
peptide: VQCPHFCYFGGAELCPGVCYV-NH2
modifications: disulfide 3-15, 7-19
B18 was tested, and the “fold difference in activity against IGE135” value [2] was roughly 2 fold.

B19: IGE127 (peptide)
peptide: IVCARLCYVGGKALCPDVCYV-NH2
modifications: disulfide 3-15, 7-19
notes: P4A of IGE120
In the case of B19, the “fold reduced activity against its control peptide” value [2] is reported as 50 fold.

B20: IGE142 (peptide)
peptide: VQCAHFCYVGGHALCPDVCYVGR
modifications: disulfide (positions not given here); also: two intramolecular disulfide bonds, pairing not given here
notes: P4A of IGE132; made in E. coli as a Z-domain fusion and cleaved with trypsin
For B20, the “fold reduced activity against its control peptide” value [2] was greater than 100 fold.

B21: IGE150 (peptide)
peptide: VQCPHFCYVGGKALCPDVCDV-NH2
modifications: disulfide (positions not given here); also: two intramolecular disulfide bonds, pairing not given here
notes: Y20D of IGE122
For B21, the “fold loss in activity” value [2] was roughly 5 fold.
